Experiments:
[1] = molecular target: c-Src SH2; experiment: SH2 binding enrichment of the phosphorylated peptide, bacterial display (enrichment ratio); higher = better substrate or ligand; peptides without Tyr show the background
[2] = molecular target: SHP2-C SH2; experiment: as above
[3] = molecular target: Grb2 SH2 (UniProt P62993); experiment: as above
[4] = molecular target: Hck (UniProt P08631); experiment: phosphorylation enrichment, bacterial display (enrichment ratio); higher = better substrate or ligand; peptides without Tyr show the background
[5] = molecular target: MERTK (UniProt Q12866); experiment: as above
[6] = molecular target: Fyn (UniProt P06241); experiment: as above
[7] = molecular target: FGFR3 (UniProt P22607); experiment: as above
[8] = test system: AncSZ; experiment: as above
[9] = molecular target: EPHB1 (UniProt P54762); experiment: as above
[10] = molecular target: FGFR1 (UniProt P11362); experiment: as above
[11] = test system: Fer (mouse); experiment: as above
[12] = molecular target: Jak2 (UniProt O60674); experiment: as above
[13] = test system: c-Src; experiment: as above
[14] = molecular target: EPHB2 (UniProt P29323); experiment: as above
[15] = molecular target: Fes (UniProt P07332); experiment: as above
[16] = test system: c-Abl (mouse); experiment: as above
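For SH2 binding enrichment of the phosphorylated peptide, bacterial display in this document: peptide library displayed on the E. coli surface as eCPX fusions, selected cells deep-sequenced, score is each peptide's frequency after selection divided by its frequency in the input.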
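For phosphorylation enrichment, bacterial display in this document: 11-residue human phosphosite peptides and single-mutation variants displayed on the E. coli surface, counted by deep sequencing, each peptide's frequency after selection divided by its frequency in the unselected input library; frequency after pTyr selection over input frequency; kinase dosed for 20-30% of maximal phosphorylation in three min.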

Chain of Jak2 (O60674 whole entry, looked up): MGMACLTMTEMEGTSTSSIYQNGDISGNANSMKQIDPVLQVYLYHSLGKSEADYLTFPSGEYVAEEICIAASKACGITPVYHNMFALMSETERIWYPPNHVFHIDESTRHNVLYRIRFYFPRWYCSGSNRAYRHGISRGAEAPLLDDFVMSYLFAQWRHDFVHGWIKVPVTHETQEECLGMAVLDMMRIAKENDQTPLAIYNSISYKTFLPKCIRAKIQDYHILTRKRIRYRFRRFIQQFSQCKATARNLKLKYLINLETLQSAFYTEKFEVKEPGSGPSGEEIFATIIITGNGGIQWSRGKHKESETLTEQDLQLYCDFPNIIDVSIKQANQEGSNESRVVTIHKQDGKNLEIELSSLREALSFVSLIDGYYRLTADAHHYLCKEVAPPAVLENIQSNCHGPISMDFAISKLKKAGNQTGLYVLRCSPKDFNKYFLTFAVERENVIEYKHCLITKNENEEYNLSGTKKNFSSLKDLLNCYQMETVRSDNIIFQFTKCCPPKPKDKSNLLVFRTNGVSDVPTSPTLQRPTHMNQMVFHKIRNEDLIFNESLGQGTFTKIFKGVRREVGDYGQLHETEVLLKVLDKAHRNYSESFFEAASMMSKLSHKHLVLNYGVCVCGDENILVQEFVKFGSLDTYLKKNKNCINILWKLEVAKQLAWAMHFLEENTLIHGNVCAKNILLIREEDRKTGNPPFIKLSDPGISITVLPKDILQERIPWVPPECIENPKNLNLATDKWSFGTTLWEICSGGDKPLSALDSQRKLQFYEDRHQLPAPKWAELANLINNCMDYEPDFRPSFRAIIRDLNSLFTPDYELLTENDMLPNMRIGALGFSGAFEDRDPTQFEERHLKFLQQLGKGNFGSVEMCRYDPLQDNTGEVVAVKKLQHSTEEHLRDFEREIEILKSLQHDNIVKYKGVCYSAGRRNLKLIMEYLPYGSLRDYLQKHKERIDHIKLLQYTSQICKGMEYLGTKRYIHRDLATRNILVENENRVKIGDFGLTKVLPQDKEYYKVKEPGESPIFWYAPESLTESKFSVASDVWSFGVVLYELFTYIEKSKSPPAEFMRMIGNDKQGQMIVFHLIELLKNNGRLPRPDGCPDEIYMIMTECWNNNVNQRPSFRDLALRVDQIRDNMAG
Chain of EPHB2 (P29323 whole entry, looked up): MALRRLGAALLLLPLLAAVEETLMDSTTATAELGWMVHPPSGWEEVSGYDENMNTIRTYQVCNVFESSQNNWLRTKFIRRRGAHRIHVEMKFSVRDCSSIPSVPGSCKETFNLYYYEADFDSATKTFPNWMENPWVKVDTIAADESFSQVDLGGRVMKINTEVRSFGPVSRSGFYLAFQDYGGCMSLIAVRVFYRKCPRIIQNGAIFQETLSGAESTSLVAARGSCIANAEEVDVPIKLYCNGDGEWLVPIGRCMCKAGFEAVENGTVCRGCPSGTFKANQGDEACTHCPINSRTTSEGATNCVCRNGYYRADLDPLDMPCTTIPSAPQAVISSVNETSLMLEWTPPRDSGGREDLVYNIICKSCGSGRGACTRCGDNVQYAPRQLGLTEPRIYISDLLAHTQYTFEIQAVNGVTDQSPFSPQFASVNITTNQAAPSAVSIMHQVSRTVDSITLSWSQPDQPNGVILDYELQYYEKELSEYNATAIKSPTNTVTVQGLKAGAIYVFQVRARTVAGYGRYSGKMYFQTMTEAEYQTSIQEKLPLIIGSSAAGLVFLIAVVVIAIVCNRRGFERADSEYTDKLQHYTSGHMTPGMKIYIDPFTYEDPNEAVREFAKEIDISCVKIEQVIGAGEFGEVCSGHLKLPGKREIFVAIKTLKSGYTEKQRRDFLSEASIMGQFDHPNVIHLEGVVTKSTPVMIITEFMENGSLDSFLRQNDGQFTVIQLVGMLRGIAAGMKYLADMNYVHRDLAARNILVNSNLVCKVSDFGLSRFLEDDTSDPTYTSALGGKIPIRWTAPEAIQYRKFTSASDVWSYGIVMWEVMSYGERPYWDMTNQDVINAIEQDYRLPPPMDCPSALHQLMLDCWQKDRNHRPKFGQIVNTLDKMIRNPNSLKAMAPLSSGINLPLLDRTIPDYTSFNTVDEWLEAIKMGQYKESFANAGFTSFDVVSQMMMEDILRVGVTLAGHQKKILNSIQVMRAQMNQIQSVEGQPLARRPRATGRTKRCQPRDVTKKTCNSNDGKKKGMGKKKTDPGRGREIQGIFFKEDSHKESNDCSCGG
Chain of Hck (P08631 whole entry, looked up): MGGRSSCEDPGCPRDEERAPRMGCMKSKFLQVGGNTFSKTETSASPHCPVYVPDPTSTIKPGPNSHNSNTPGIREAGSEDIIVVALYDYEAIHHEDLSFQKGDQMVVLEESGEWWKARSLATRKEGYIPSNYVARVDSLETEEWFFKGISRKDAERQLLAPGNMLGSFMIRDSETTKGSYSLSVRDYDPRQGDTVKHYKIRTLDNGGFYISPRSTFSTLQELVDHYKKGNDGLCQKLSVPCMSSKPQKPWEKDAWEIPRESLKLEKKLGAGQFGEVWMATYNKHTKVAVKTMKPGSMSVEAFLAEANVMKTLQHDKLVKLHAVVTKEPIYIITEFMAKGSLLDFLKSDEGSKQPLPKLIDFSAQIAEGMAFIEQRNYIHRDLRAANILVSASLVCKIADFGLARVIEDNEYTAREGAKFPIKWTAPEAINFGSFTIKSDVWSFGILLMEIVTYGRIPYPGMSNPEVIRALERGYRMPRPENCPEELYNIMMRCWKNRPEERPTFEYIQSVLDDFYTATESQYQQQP
Chain of Fes (P07332 whole entry, looked up): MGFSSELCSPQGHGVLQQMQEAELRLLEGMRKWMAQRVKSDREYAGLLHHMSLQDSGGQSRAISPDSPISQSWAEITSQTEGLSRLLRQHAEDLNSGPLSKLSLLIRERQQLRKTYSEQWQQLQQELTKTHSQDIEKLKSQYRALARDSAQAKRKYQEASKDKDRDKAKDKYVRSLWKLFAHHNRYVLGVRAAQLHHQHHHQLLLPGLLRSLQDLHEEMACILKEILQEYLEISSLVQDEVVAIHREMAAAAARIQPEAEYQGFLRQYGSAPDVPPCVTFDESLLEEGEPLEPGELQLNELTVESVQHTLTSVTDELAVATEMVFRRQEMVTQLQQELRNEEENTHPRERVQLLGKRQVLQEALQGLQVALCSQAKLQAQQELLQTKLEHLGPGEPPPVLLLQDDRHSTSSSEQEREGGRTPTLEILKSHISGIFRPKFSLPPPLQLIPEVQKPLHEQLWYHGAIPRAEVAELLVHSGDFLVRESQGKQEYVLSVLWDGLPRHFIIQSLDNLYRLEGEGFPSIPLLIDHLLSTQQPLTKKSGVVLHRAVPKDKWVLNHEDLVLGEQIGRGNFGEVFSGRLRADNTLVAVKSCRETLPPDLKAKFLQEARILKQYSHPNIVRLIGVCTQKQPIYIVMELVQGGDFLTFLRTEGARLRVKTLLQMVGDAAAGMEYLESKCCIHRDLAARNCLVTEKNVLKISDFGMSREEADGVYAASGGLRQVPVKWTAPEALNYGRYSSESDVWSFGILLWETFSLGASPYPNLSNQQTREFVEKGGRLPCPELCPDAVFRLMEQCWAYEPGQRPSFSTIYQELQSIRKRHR
Chain of FGFR3 (P22607 whole entry, looked up): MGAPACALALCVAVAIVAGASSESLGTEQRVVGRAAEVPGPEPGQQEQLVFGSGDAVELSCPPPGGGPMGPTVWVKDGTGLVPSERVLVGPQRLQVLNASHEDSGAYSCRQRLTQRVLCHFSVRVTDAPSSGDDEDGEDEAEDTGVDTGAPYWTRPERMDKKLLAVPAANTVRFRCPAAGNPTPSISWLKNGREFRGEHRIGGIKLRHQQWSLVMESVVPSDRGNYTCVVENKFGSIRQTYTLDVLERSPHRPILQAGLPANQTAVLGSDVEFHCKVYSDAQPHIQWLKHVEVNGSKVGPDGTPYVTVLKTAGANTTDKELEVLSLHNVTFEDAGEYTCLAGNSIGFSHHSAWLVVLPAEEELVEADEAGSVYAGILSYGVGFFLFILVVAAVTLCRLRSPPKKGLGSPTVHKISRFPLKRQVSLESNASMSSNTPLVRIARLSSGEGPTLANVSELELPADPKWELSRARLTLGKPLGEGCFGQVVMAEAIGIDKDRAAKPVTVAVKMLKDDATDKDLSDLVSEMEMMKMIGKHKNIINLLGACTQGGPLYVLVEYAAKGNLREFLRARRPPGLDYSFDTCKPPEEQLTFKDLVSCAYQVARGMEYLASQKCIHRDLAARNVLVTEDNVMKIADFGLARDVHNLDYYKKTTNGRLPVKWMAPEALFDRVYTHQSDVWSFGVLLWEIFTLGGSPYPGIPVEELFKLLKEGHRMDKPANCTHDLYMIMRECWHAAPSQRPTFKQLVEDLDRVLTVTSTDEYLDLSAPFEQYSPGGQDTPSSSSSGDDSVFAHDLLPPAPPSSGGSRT
Chain of Fyn (P06241 whole entry, looked up): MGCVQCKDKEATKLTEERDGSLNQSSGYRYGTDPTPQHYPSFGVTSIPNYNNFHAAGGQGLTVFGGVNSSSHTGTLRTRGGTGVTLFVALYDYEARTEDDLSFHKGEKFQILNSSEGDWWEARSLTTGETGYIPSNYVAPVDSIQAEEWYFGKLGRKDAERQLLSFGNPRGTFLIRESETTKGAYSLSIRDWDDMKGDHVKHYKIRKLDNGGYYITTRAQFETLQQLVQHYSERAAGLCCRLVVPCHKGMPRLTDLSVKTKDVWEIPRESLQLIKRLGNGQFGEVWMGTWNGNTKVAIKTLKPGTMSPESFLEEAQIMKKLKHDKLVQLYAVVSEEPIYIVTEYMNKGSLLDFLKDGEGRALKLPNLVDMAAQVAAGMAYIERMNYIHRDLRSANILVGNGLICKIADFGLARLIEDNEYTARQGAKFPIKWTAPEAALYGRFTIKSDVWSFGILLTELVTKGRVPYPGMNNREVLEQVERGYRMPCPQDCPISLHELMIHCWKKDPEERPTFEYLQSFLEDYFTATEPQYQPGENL

Row | SH2 binding enrichment [1] | SH2 binding enrichment [2] | SH2 binding enrichment [3] | Sequence | phosphorylation enrichment [4] | phosphorylation enrichment [5] | phosphorylation enrichment [6] | phosphorylation enrichment [7] | phosphorylation enrichment [8] | phosphorylation enrichment [9] | phosphorylation enrichment [10] | phosphorylation enrichment [11] | phosphorylation enrichment [12] | phosphorylation enrichment [13] | phosphorylation enrichment [14] | phosphorylation enrichment [15] | phosphorylation enrichment [16]
1 | 0.524 | 0.937 | 0.79 | DQVEQCKKELE [LMNA_Y259_Y259C] | 0.703 | 0.49 | 0.52 | 0.733 | 1.2 | 0.59 | 0.528 | 0.518 | 1.1 | 0.562 | 0.625 | 1.27 | 0.746
2 | 0.953 | 1.32 | 1.28 | DSFATYFRWVL [H2BW1_Y84_R87W] | 5.6 | 4.5 | 2.76 | 1.98 | 1.53 | 1.85 | 1.98 | 2.46 | 5.48 | 3.21 | 3.54 | 1.47 | 1.04
3 | 1.13 | 1.18 | 2 | DSFSSYCNAVA [SLC20A2_Y436_YF] | 0.544 | 0.503 | 0.509 | 0.812 | 1.24 | 0.642 | 0.497 | 0.608 | 1.06 | 0.579 | 0.826 | 1.11 | 0.801
4 | 0.738 | 0.789 | 0.724 | DVMDLYKTLRG [NR3C1_Y30_F29L] | 0.904 | 0.431 | 0.437 | 0.861 | 0.773 | 0.483 | 0.585 | 0.381 | 0.517 | 0.421 | 0.535 | 0.776 | 0.521
5 | 0.536 | 0.39 | 0.696 | DVRQEYSGMIL [PLXND1_Y616_P617S] | 0.498 | 0.35 | 0.434 | 0.565 | 0.795 | 0.432 | 0.504 | 0.567 | 0.678 | 0.477 | 0.531 | 0.891 | 0.484
6 | 1.11 | 11.9 | 0.789 | DVSVVYSEVKT [FCRL4_Y493] | 5.21 | 0.834 | 4.99 | 0.751 | 0.991 | 0.631 | 0.775 | 4.14 | 1.07 | 4.13 | 0.592 | 1.05 | 1.22
7 | 0.456 | 0.589 | 0.684 | DYDHSYYFIAT [ESD_Y262_G257D] | 2.24 | 3.77 | 1.48 | 9.9 | 2.9 | 5.16 | 11.7 | 1.49 | 7.22 | 1.81 | 3.27 | 1.13 | 0.877
8 | 0.532 | 0.788 | 0.799 | DYNPNYCFAGK [ALK_Y1096] | 0.563 | 0.906 | 0.607 | 0.778 | 1.82 | 2.62 | 0.641 | 0.735 | 0.873 | 0.63 | 1.07 | 1.03 | 0.812
9 | 1.43 | 0.584 | 0.813 | DYTEAYNPKIK [CLK1_Y305] | 0.596 | 0.419 | 0.456 | 0.592 | 1.02 | 0.422 | 0.624 | 0.358 | 0.641 | 0.483 | 0.453 | 0.913 | 0.678
10 | 0.485 | 0.538 | 0.765 | EATKGYPDDPT [G6PD_Y322_L323P] | 0.508 | 0.515 | 0.479 | 0.609 | 0.901 | 0.501 | 0.465 | 0.483 | 1.07 | 0.493 | 0.673 | 1.05 | 0.786
11 | 0.646 | 0.577 | 0.82 | ECKEAYHEGEC [PRKN_Y372] | 0.654 | 0.456 | 0.48 | 0.652 | 1.32 | 0.524 | 0.626 | 0.498 | 1.18 | 0.541 | 0.638 | 1.26 | 0.761
12 | 0.554 | 0.734 | 0.767 | EDDIIYTQDFT [STK11_Y362] | 0.742 | 0.631 | 0.796 | 0.821 | 1.41 | 0.869 | 0.652 | 0.655 | 1.29 | 1.11 | 0.647 | 1.37 | 0.957
13 | 0.55 | 0.563 | 0.992 | EDGFAYVPLKD [PRIM2_Y208] | 0.519 | 0.42 | 0.479 | 0.759 | 1.25 | 0.567 | 0.501 | 0.492 | 1.18 | 0.523 | 0.649 | 1.27 | 0.86
14 | 0.506 | 0.671 | 0.767 | EDSEFYKAFEE [CASQ2_Y179_YF] | 0.543 | 0.454 | 0.442 | 0.739 | 1.2 | 0.534 | 0.482 | 0.4 | 1.07 | 0.567 | 0.659 | 1.21 | 0.693
15 | 0.638 | 0.791 | 0.997 | EEETDYTPVWC [UROD_Y30_G25E] | 0.578 | 0.504 | 0.484 | 0.876 | 1.58 | 0.689 | 0.554 | 0.771 | 1.16 | 0.503 | 0.589 | 1.25 | 0.937
16 | 0.623 | 0.83 | 1.25 | EEGESHVCSSD [DCX_Y125_Y125H] | 0.497 | 0.528 | 0.54 | 0.573 | 0.96 | 0.465 | 0.518 | 0.519 | 0.945 | 0.525 | 0.545 | 1.07 | 0.673
17 | 0.549 | 0.588 | 0.884 | EEGNPYFSSTR [MCCC2_Y520_A524T_YF] | 0.595 | 0.349 | 0.505 | 0.621 | 0.865 | 0.509 | 0.484 | 0.413 | 0.823 | 1.14 | 0.527 | 0.814 | 0.585
18 | 0.541 | 1 | 1.04 | EEQKRYFNAMK [SCN5A_Y1494_K1493R_YF] | 0.451 | 0.41 | 0.348 | 0.46 | 0.591 | 0.353 | 0.49 | 0.424 | 0.673 | 0.435 | 0.445 | 0.645 | 0.446
19 | 0.813 | 0.522 | 1.32 | EEQKRYYNAMK [SCN5A_Y1494_K1493R] | 0.46 | 0.351 | 0.471 | 0.48 | 0.623 | 0.512 | 0.511 | 0.436 | 0.479 | 0.327 | 0.49 | 0.648 | 0.352
20 | 7.14 | 0.701 | 0.671 | EESREYDRLYE [PIK3R1_Y463_K459E] | 0.865 | 0.465 | 0.751 | 1.19 | 1.42 | 0.761 | 0.708 | 0.641 | 1.45 | 0.714 | 0.7 | 1.44 | 1.02
21 | 0.674 | 0.769 | 0.865 | EHAGEYGAEAL [HBA1_Y25_A20E] | 0.592 | 0.455 | 0.489 | 0.681 | 0.832 | 0.423 | 0.595 | 0.427 | 0.693 | 0.468 | 0.543 | 0.896 | 0.612
22 | 0.376 | 0.494 | 0.771 | EKKDVYKTGEQ [CFH_Y1008_A1010T] | 0.561 | 0.382 | 0.471 | 0.524 | 0.7 | 0.394 | 0.478 | 0.447 | 0.437 | 0.438 | 0.411 | 0.663 | 0.42
23 | 0.643 | 0.803 | 0.918 | EMFNPCYGLFE [NEDD4L_Y679_Y679C] | 1.43 | 0.765 | 4.58 | 0.713 | 1.04 | 0.489 | 0.543 | 1.14 | 1.2 | 5.2 | 0.689 | 1.49 | 1.03
24 | 0.65 | 0.498 | 0.688 | EMQAAYQKVVA [HBD_Y131_Q126E] | 0.535 | 0.399 | 0.472 | 0.574 | 0.614 | 0.393 | 0.405 | 0.446 | 0.581 | 0.391 | 0.42 | 0.656 | 0.421
25 | 0.47 | 0.737 | 0.83 | ENQEIYQKAFD [KPNA1_Y493] | 1.2 | 0.616 | 0.866 | 0.643 | 1.43 | 0.579 | 0.522 | 0.686 | 1.08 | 1.45 | 0.576 | 1.15 | 1.03
26 | 0.486 | 0.653 | 0.773 | EPAVLYNLKER [MYH7_Y103_D107E] | 0.72 | 0.388 | 0.511 | 0.524 | 0.804 | 0.354 | 0.506 | 0.332 | 0.74 | 0.694 | 0.547 | 0.854 | 0.687
27 | 0.606 | 0.685 | 0.707 | EQFELHCEMGS [CBL_Y371_Y371H_YF] | 0.58 | 0.526 | 0.523 | 0.802 | 1.17 | 0.71 | 0.496 | 0.577 | 1.25 | 0.528 | 0.623 | 1.49 | 0.995
28 | 0.431 | 0.809 | 0.664 | EQKKYYNAMKN [SCN5A_Y1495_K1500N] | 0.405 | 0.356 | 0.292 | 0.382 | 0.507 | 0.388 | 0.336 | 0.354 | 0.489 | 0.359 | 0.335 | 0.536 | 0.489

Row | Sequence | SH2 binding enrichment [1] | SH2 binding enrichment [2] | SH2 binding enrichment [3] | phosphorylation enrichment [4] | phosphorylation enrichment [5] | phosphorylation enrichment [6] | phosphorylation enrichment [7] | phosphorylation enrichment [8] | phosphorylation enrichment [9] | phosphorylation enrichment [10] | phosphorylation enrichment [11] | phosphorylation enrichment [12] | phosphorylation enrichment [13] | phosphorylation enrichment [14] | phosphorylation enrichment [15] | phosphorylation enrichment [16]
29 | EGTATYAAAVL [JUP_Y644] | 0.493 | 0.722 | 0.847 | 0.987 | 0.438 | 0.858 | 0.458 | 0.587 | 0.561 | 0.394 | 1.06 | 0.501 | 0.897 | 1.24 | 0.661 | 0.639
